What was measured:
[1] = target: T1, NXE’992, chimeric peptide (pyrazole-QRPRL[AIB]S[PipALA]VPFP) (UniProt Q9ULZ1, pyrazole on the N-terminus; AIB at position 6; PipALA at position 8); assay: SPR; pH 6.0
[2] = target: T1, NXE’992, chimeric peptide …; assay: SPR; pH 7.5

B1: human apelin stabilised receptor (NxStaR) (receptor)
chain: MEEGGDFDNYYGADNQSECEYTDWKSSGALIPAIYMLVFLLGTTGNGLVLWTVFRSSREKRRSADIFIASLAVADLTFVVTLPLWAVYTYRDYDWPFGTFFCKLSSYLIFVAMYASVFCLTGLSFDRYLAIVRPVANARLRLRVSGAVATAVLWVLAALLAMPVMVLRTTGDLENTTKVQCYMDYSMVATVSSEWAWEVGLGVSSTMVGFVVPLTIMLTCYFFAAQTIAGHFRKERIEGLRKRRRLLSIIVVLVVTFALCWMPYHLVKTLYMLGSLLHWPCDFDLFLMNIFPYCTCIAYVNSCLNPFLYAFFDPRFRQACTSMLCCGQSRCAGTSHSSSGEKSASYSSGHSQGPGPNMGKGGEQMHEKSIPYSQETLVVD
- Kd [1]: 21 nM
- Kd [2]: 3.3 nM
